From the array DNA melting data of Ke et al.

Experiment: melting temperature; melt of duplexes
Conditions: sodium 0.0675 M; strand 1 µM

| Substance | Tm [°C] |
| --- | --- |
| CGACGTGCTTGATGTGCTG+CAGCACATAGAGCACGTCG (((((((((..((((((((+))))))))..))))))))) | 54.2 |
| CGACGTGCCCCATGTGCTG+CAGCACATTGGGCACGTCG ((((((((((.((((((((+)))))))).)))))))))) | 58.5 |
| CGACGTGCGCAATGTGCTG+CAGCACATATGGCACGTCG ((((((((...((((((((+))))))))...)))))))) | 50.7 |
| CGACGTGCGGTATGTGCTG+CAGCACATAGAGCACGTCG ((((((((..(((((((((+)))))))))..)))))))) | 56 |
| CGACGTGCAATATGTGCTG+CAGCACATTGCGCACGTCG ((((((((...((((((((+))))))))...)))))))) | 50 |
| CGACGTGCAAAATGTGCTG+CAGCACATGAGGCACGTCG ((((((((...((((((((+))))))))...)))))))) | 52.5 |
| CGACGTGCTGGATGTGCTG+CAGCACATTTGGCACGTCG ((((((((...((((((((+))))))))...)))))))) | 51.8 |
| CGACGTGCCGCATGTGCTG+CAGCACATGTTGCACGTCG ((((((((..(((((((((+)))))))))..)))))))) | 54.5 |
| CGACGTGCGGGATGTGCTG+CAGCACATGGCGCACGTCG (((((((((..((((((((+))))))))..))))))))) | 57.5 |
| CGACGTGCTCTATGTGCTG+CAGCACATAACGCACGTCG ((((((((..(((((((((+)))))))))..)))))))) | 49.7 |
| CGACGTGCCCTATGTGCTG+CAGCACATGGGGCACGTCG ((((((((((.((((((((+)))))))).)))))))))) | 61.4 |
| CGACGTGCTGGATGTGCTG+CAGCACATGATGCACGTCG ((((((((...((((((((+))))))))...)))))))) | 51.7 |
| CGACGTGCTCTATGTGCTG+CAGCACATCGTGCACGTCG ((((((((.(.((((((((+)))))))).).)))))))) | 45.2 |
| CGACGTGCACGATGTGCTG+CAGCACATCGTGCACGTCG (((((((((((((((((((+))))))))))))))))))) | 65.4 |
| CGACGTGCTAGATGTGCTG+CAGCACATGGTGCACGTCG ((((((((...((((((((+))))))))...)))))))) | 46.9 |
| CGACGTGCGGGATGTGCTG+CAGCACATACTGCACGTCG ((((((((.(.((((((((+)))))))).).)))))))) | 56.9 |
| CGACGTGCTGTATGTGCTG+CAGCACATAGCGCACGTCG ((((((((..(((((((((+)))))))))..)))))))) | 49.9 |
| CGACGTGCGGGATGTGCTG+CAGCACATGCAGCACGTCG ((((((((.(.((((((((+)))))))).).)))))))) | 57.2 |
| CGACGTGCGTGATGTGCTG+CAGCACATATAGCACGTCG ((((((((...((((((((+))))))))...)))))))) | 52.5 |
| CGACGTGCGAGATGTGCTG+CAGCACATGAAGCACGTCG ((((((((...((((((((+))))))))...)))))))) | 55.4 |
| CGACGTGCTATATGTGCTG+CAGCACATCTCGCACGTCG ((((((((.(.((((((((+)))))))).).)))))))) | 48.3 |
| CGACGTGCCTGATGTGCTG+CAGCACATGAAGCACGTCG ((((((((.(.((((((((+)))))))).).)))))))) | 49.8 |
| CGACGTGCGGGATGTGCTG+CAGCACATATGGCACGTCG ((((((((...((((((((+))))))))...)))))))) | 50.8 |
| CGACGTGCGACATGTGCTG+CAGCACATCGAGCACGTCG ((((((((...((((((((+))))))))...)))))))) | 54.8 |

| Substance | Tm [°C] |
| --- | --- |
| CGACGTGCTTTATGTGCTG+CAGCACATTTGGCACGTCG ((((((((...((((((((+))))))))...)))))))) | 50.1 |
| CGACGTGCCTCATGTGCTG+CAGCACATTTGGCACGTCG (((((((((..((((((((+))))))))..))))))))) | 53.6 |
| CGACGTGCTGCATGTGCTG+CAGCACATTCCGCACGTCG ((((((((.(.((((((((+)))))))).).)))))))) | 49.3 |
| CGACGTGCCCCATGTGCTG+CAGCACATGTAGCACGTCG ((((((((..(((((((((+)))))))))..)))))))) | 51.9 |
| CGACGTGCCGTATGTGCTG+CAGCACATGAGGCACGTCG (((((((((..((((((((+))))))))..))))))))) | 58.7 |
| CGACGTGCCGCATGTGCTG+CAGCACATACCGCACGTCG ((((((((.(.((((((((+)))))))).).)))))))) | 48.9 |
| CGACGTGCCAGATGTGCTG+CAGCACATCTTGCACGTCG ((((((((.((((((((((+)))))))))).)))))))) | 57 |
| CGACGTGCTATATGTGCTG+CAGCACATTTTGCACGTCG ((((((((.(.((((((((+)))))))).).)))))))) | 50.9 |
| CGACGTGCAAAATGTGCTG+CAGCACATTGGGCACGTCG ((((((((..(((((((((+)))))))))..)))))))) | 54 |
| CGACGTGCATGATGTGCTG+CAGCACATGGCGCACGTCG ((((((((...((((((((+))))))))...)))))))) | 48.1 |
| CGACGTGCCCAATGTGCTG+CAGCACATGGAGCACGTCG ((((((((.(.((((((((+)))))))).).)))))))) | 55.5 |
| CGACGTGCCCTATGTGCTG+CAGCACATCGGGCACGTCG ((((((((((.((((((((+)))))))).)))))))))) | 58.7 |
| CGACGTGCAAAATGTGCTG+CAGCACATGCAGCACGTCG ((((((((...((((((((+))))))))...)))))))) | 53.8 |
| CGACGTGCAGGATGTGCTG+CAGCACATTCAGCACGTCG ((((((((.(.((((((((+)))))))).).)))))))) | 54.1 |
| CGACGTGCTGGATGTGCTG+CAGCACATAGCGCACGTCG ((((((((...((((((((+))))))))...)))))))) | 49.3 |
| CGACGTGCGCGATGTGCTG+CAGCACATGGAGCACGTCG ((((((((.(.((((((((+)))))))).).)))))))) | 56 |
| CGACGTGCCCCATGTGCTG+CAGCACATCGAGCACGTCG ((((((((.(.((((((((+)))))))).).)))))))) | 48.7 |
| CGACGTGCTTCATGTGCTG+CAGCACATGATGCACGTCG ((((((((.((((((((((+)))))))))).)))))))) | 58.8 |
| CGACGTGCACAATGTGCTG+CAGCACATCGAGCACGTCG ((((((((.(.((((((((+)))))))).).)))))))) | 48.6 |
| CGACGTGCTAAATGTGCTG+CAGCACATTTAGCACGTCG (((((((((((((((((((+))))))))))))))))))) | 61.6 |
| CGACGTGCTAAATGTGCTG+CAGCACATATGGCACGTCG ((((((((.(.((((((((+)))))))).).)))))))) | 52 |
| CGACGTGCCCTATGTGCTG+CAGCACATCTGGCACGTCG (((((((((..((((((((+))))))))..))))))))) | 53.2 |
| CGACGTGCGACATGTGCTG+CAGCACATTGCGCACGTCG (((((((((..((((((((+))))))))..))))))))) | 55.3 |
| CGACGTGCATGATGTGCTG+CAGCACATGTCGCACGTCG ((((((((...((((((((+))))))))...)))))))) | 48.8 |

| Substance | Tm [°C] |
| --- | --- |
| CGACGTGCGTAATGTGCTG+CAGCACATCACGCACGTCG ((((((((((.((((((((+)))))))).)))))))))) | 58 |
| CGACGTGCCCGATGTGCTG+CAGCACATCCTGCACGTCG ((((((((..(((((((((+)))))))))..)))))))) | 52.5 |
| CGACGTGCGTGATGTGCTG+CAGCACATACGGCACGTCG ((((((((...((((((((+))))))))...)))))))) | 51.1 |
| CGACGTGCTAAATGTGCTG+CAGCACATCACGCACGTCG ((((((((...((((((((+))))))))...)))))))) | 49 |
| CGACGTGCAGTATGTGCTG+CAGCACATTGCGCACGTCG ((((((((...((((((((+))))))))...)))))))) | 49.3 |
| CGACGTGCTGCATGTGCTG+CAGCACATCTCGCACGTCG ((((((((...((((((((+))))))))...)))))))) | 49.2 |
| CGACGTGCTAGATGTGCTG+CAGCACATTAGGCACGTCG ((((((((...((((((((+))))))))...)))))))) | 52.2 |
| CGACGTGCCGAATGTGCTG+CAGCACATTTGGCACGTCG (((((((((.(((((((((+))))))))).))))))))) | 60.6 |
| CGACGTGCATTATGTGCTG+CAGCACATAGAGCACGTCG ((((((((..(((((((((+)))))))))..)))))))) | 51.2 |
| CGACGTGCAAGATGTGCTG+CAGCACATTCAGCACGTCG ((((((((...((((((((+))))))))...)))))))) | 50.7 |
| CGACGTGCACCATGTGCTG+CAGCACATCCGGCACGTCG ((((((((...((((((((+))))))))...)))))))) | 42.7 |
| CGACGTGCGCCATGTGCTG+CAGCACATCTGGCACGTCG ((((((((...((((((((+))))))))...)))))))) | 47.4 |
| CGACGTGCCAAATGTGCTG+CAGCACATGCCGCACGTCG ((((((((...((((((((+))))))))...)))))))) | 50.6 |
| CGACGTGCACCATGTGCTG+CAGCACATACGGCACGTCG ((((((((...((((((((+))))))))...)))))))) | 42.9 |
| CGACGTGCGTCATGTGCTG+CAGCACATCCTGCACGTCG ((((((((...((((((((+))))))))...)))))))) | 48.9 |
| CGACGTGCTTGATGTGCTG+CAGCACATCTAGCACGTCG (((((((((.(((((((((+))))))))).))))))))) | 58.6 |
| CGACGTGCACTATGTGCTG+CAGCACATGCTGCACGTCG (((((((((..((((((((+))))))))..))))))))) | 45.5 |
| CGACGTGCTGCATGTGCTG+CAGCACATACGGCACGTCG ((((((((.(.((((((((+)))))))).).)))))))) | 53.6 |
| CGACGTGCTTAATGTGCTG+CAGCACATGTGGCACGTCG ((((((((...((((((((+))))))))...)))))))) | 51.9 |
| CGACGTGCACAATGTGCTG+CAGCACATTTTGCACGTCG (((((((((.(((((((((+))))))))).))))))))) | 54 |
| CGACGTGCTCCATGTGCTG+CAGCACATCGAGCACGTCG ((((((((((.((((((((+)))))))).)))))))))) | 55.2 |
| CGACGTGCCCCATGTGCTG+CAGCACATGCTGCACGTCG ((((((((..(((((((((+)))))))))..)))))))) | 49.7 |
| CGACGTGCTCCATGTGCTG+CAGCACATATCGCACGTCG ((((((((...((((((((+))))))))...)))))))) | 46.4 |
| CGACGTGCCTAATGTGCTG+CAGCACATTCGGCACGTCG (((((((((.(((((((((+))))))))).))))))))) | 57 |
